According to article PMC4178060, “Recombinant p35 from Bacteria Can Form Interleukin (IL-)12, but Not IL-35” (PLoS ONE, 2014):

T1: p40_(C197A) (murine p40, flag-tagged) (mouse) (UniProt P43432)
T1 sequence: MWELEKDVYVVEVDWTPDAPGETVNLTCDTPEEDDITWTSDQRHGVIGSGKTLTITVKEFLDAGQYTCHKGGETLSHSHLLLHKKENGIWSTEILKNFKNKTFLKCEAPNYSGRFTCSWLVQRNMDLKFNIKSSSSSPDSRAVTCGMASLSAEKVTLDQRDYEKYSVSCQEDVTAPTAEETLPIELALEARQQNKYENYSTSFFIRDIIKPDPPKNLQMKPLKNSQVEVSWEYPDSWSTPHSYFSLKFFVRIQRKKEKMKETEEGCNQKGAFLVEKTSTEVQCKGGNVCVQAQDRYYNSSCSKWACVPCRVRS


Key:
[1] = biological target: T1, p40_(C197A) (murine p40, flag-tagged) (mouse)
[2] = biological target: the molecule itself; experiment: non-reducing SDS-PAGE with Western blot; 20 µl conditioned supernatant of transiently transfected HEK293 cells separated by SDS-PAGE under non-reducing conditions; flag-specific antibody; disulfide-linked dimer

biological activity of IL-12 reconstituted with bacterially expressed p35, compared to IL-12 (Ba/F3-gp130-IL-12Rβ1-IL-12Rβ2 cells) (fold less active) [1] | Binder | stoichiometry N [2]
> 100 | recombinant murine p35 from bacteria (p35bac) (natural protein) RVIPVSGPARCLSQSRNLLKTTDDMVKTAREKLKHYSCTAEDIDHEDITRDQTSTLKTCLPLELHKNESCLATRETSSTTRGSCLPPQKTSLMMTLCLGSIYEDLKMYQTEFQAINAALQNHNHQQIILDKGMLVAIDELMQSLNHNGETLRQKPPVGEADPYRVKMKLCILLHAFSTRVVTINRVMGYLSSA | –
– | p40 wildtype (murine p40, flag-tagged) (natural protein, mouse, UniProt P43432 23-335, looked up, murine p40 (IL-12 subunit beta); The supernatant holds monomer and disulfide-linked dimer; also called mp40; IL-12p40; source: HEK293, transiently transfected, conditioned supernatant) MWELEKDVYVVEVDWTPDAPGETVNLTCDTPEEDDITWTSDQRHGVIGSGKTLTITVKEFLDAGQYTCHKGGETLSHSHLLLHKKENGIWSTEILKNFKNKTFLKCEAPNYSGRFTCSWLVQRNMDLKFNIKSSSSSPDSRAVTCGMASLSAEKVTLDQRDYEKYSVSCQEDVTCPTAEETLPIELALEARQQNKYENYSTSFFIRDIIKPDPPKNLQMKPLKNSQVEVSWEYPDSWSTPHSYFSLKFFVRIQRKKEKMKETEEGCNQKGAFLVEKTSTEVQCKGGNVCVQAQDRYYNSSCSKWACVPCRVRS | 2
